Key:
Assay in all cases: pull-down
[1] = biological target: GST-Gαi3 wild type (rat) (rat) (UniProt P08753)
[2] = biological target: GST-Gαi3 G203A (rat, inactive mutant) (rat) (UniProt P08753)
GST-Gαs (human) (human) = GST-Gαs (human) (human) (UniProt P63092)
Chain of UniProt P63092 (P63092 2-394): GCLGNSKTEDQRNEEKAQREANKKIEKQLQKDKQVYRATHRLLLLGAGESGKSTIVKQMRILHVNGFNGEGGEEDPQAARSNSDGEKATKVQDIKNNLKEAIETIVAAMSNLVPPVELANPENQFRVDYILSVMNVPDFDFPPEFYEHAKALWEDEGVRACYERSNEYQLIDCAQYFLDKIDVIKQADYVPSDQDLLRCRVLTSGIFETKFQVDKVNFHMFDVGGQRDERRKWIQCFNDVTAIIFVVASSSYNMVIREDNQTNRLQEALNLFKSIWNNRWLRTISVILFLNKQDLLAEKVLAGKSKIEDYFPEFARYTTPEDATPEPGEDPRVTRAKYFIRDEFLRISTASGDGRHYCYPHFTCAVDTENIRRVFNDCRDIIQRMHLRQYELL

| percent of the total GIV bound [1] [%] | percent of GIV bound to GST-Gαi3 [1] [%] | Substance | fold more GIV bound than by Gαi3Q204L [2] [fold] | fold less GIV bound than by GST-Gαi3 (GST-Gαs (human) (human)) [fold] |
| --- | --- | --- | --- | --- |
| 10 to 30 |  | GIV (Gα-interacting vesicle-associated protein), endogenous in HeLa cell lysate (natural protein) | 10 to 15 | 100 to 300 |
|  | 13 | GIV S1416A, in vitro translated (natural protein) |  |  |
|  | 14 | GIV S1416D, in vitro translated (natural protein) |  |  |

| Substance | percent of the total GIV bound [1] [%] | percent of GIV bound to GST-Gαi3 [1] [%] | fold more GIV bound than by Gαi3Q204L [2] [fold] | fold less GIV bound than by GST-Gαi3 (GST-Gαs (human) (human)) [fold] |
| --- | --- | --- | --- | --- |
| GIV, full length, in vitro translated (natural protein) |  | 14 | 10 to 15 | 100 to 300 |
